System: RecQ helicase (Escherichia coli)
Conditions: single-molecule hairpin re-zipping blockage (magnetic tweezers); no ATP; Ftest 10 pN; non-specific binding along template

“mechanically opened DNA hairpin (ssDNA template)” gave a K half of 0.226 nM.

Source: patent publication US20150362488
